In PMC3215729, “Rv2607 from Mycobacterium tuberculosis Is a Pyridoxine 5′-Phosphate Oxidase with Unusual Substrate Specificity” (PLoS ONE, 2011):

Target: the molecule itself
Assay: native MS

B1: Rv2607 from Mycobacterium tuberculosis H37Rv, amino-terminal 6x-histidine tag fusion protein (enzyme)
chain: MDDDAQMVAIDKDQLARMRGEYGPEKDGCGDLDFDWLDDGWLTLLRRWLNDAQRAGVSEPNAMVLATVADGKPVTRSVLCKILDESGVAFFTSYTSAKGEQLAVTPYASATFPWYQLGRQAHVQGPVSKVSTEEIFTYWSMRPRGAQLGAWASQQSRPVGSRAQLDNQLAEVTRRFADQDQIPVPPGWGGYRIAPEIVEFWQGRENRMHNRIRVANGRLERLQP
notes: also called PNPOx; pyridoxine 5'-phosphate oxidase; not shown: His6, N-terminal, kept
- stoichiometry N: 2
